B1: FLAG-tagged DND1 wild-type (Dead End, full-length human protein 1-353) [human] / HNRNPL [human (endogenous in HEK293T)] (parent)
chain 1: MQSKRDCELWCERVNPENKAALEAWVRETGIRLVQVNGQRKYGGPPPGWVGSPPPAGSEVFIGRLPQDVYEHQLIPLFQRVGRLYEFRLMMTFSGLNRGFAYARYSSRRGAQAAIATLHNHPLRPSCPLLVCRSTEKCELSVDGLPPNLTRSALLLALQPLGPGLQEARLLPSPGPAPGQIALLKFSSHRAAAMAKKALVEGQSHLCGEQVAVEWLKPDLKQRLRQQLVGPFLRSPQPEGSQLALARDKLGFQGARATLQLLCQRMKLGSPVFLTKCLGIGPAGWHRFWYQVVIPGHPVPFSGLIWVVLTLDGRDGHEVAKDAVSVRLLQALSESGANLLWSAGAEAGTMVKQ
chain 2: MSRRLLPRAEKRRRRLEQRQQPDEQRRRSGAMVKMAAAGGGGGGGRYYGGGSEGGRAPKRLKTDNAGDQHGGGGGGGGGAGAAGGGGGGENYDDPHKTPASPVVHIRGLIDGVVEADLVEALQEFGPISYVVVMPKKRQALVEFEDVLGACNAVNYAADNQIYIAGHPAFVNYSTSQKISRPGDSDDSRSVNSVLLFTILNPIYSITTDVLYTICNPCGPVQRIVIFRKNGVQAMVEFDSVQSAQRAKASLNGADIYSGCCTLKIEYAKPTRLNVFKNDQDTWDYTNPNLSGQGDPGSNPNKRQRQPPLLGDHPAEYGGPHGGYHSHYHDEGYGPPPPHYEGRRMGPPVGGHRRGPSRYGPQYGHPPPPPPPPEYGPHADSPVLMVYGLDQSKMNCDRVFNVFCLYGNVEKVKFMKSKPGAAMVEMADGYAVDRAITHLNNNFMFGQKLNVCVSKQPAIMPGQSYGLEDGSCSYKDFSESRNNRFSTPEQAAKNRIQHPSNVLHFFNAPLEVTEENFFEICDELGVKRPSSVKVFSGKSERSSSGLLEWESKSDALETLGFLNHYQMKNPNGPYPYTLKLCFSTAQHAS
B2: FLAG-tagged DND1 wild-type (Dead End, full-length human protein 1-353) [human] / SYNCRIP [human (endogenous in HEK293T)] (parent)
chain 1: B1 chain 1
chain 2: MATEHVNGNGTEEPMDTTSAVIHSENFQTLLDAGLPQKVAEKLDEIYVAGLVAHSDLDERAIEALKEFNEDGALAVLQQFKDSDLSHVQNKSAFLCGVMKTYRQREKQGTKVADSSKGPDEAKIKALLERTGYTLDVTTGQRKYGGPPPDSVYSGQQPSVGTEIFVGKIPRDLFEDELVPLFEKAGPIWDLRLMMDPLTGLNRGYAFVTFCTKEAAQEAVKLYNNHEIRSGKHIGVCISVANNRLFVGSIPKSKTKEQILEEFSKVTEGLTDVILYHQPDDKKKNRGFCFLEYEDHKTAAQARRRLMSGKVKVWGNVGTVEWADPIEDPDPEVMAKVKVLFVRNLANTVTEEILEKAFSQFGKLERVKKLKDYAFIHFDERDGAVKAMEEMNGKDLEGENIEIVFAKPPDQKRKERKAQRQAAKNQMYDDYYYYGPPHMPPPTRGRGRGGRGGYGYPPDYYGYEDYYDYYGYDYHNYRGGYEDPYYGYEDFQVGARGRGGRGARGAAPSRGRGAAPPRGRAGYSQRGGPGSARGVRGARGGAQQQRGRGVRGARGGRGGNVGGKRKADGYNQPDSKRRQTNNQNWGSQPIAQQPLQGGDHSGNYGYKSENQEFYQDTFGQQWK
B3: FLAG-tagged DND1 wild-type (Dead End, full-length human protein 1-353) [human] / MEX3A [human (endogenous in HEK293T)] (parent)
chain 1: B1 chain 1
chain 2: MPSLVVSGIMERNGGFGELGCFGGSAKDRGLLEDERALQLALDQLCLLGLGEPPAPTAGEDGGGGGGGAPAQPAAPPQPAPPPPPAAPPAAPTAAPAAQTPQPPTAPKGASDAKLCALYKEAELRLKGSSNTTECVPVPTSEHVAEIVGRQGCKIKALRAKTNTYIKTPVRGEEPVFMVTGRREDVATARREIISAAEHFSMIRASRNKSGAAFGVAPALPGQVTIRVRVPYRVVGLVVGPKGATIKRIQQQTNTYIITPSRDRDPVFEITGAPGNVERAREEIETHIAVRTGKILEYNNENDFLAGSPDAAIDSRYSDAWRVHQPGCKPLSTFRQNSLGCIGECGVDSGFEAPRLGEQGGDFGYGGYLFPGYGVGKQDVYYGVAETSPPLWAGQENATPTSVLFSSASSSSSSSAKARAGPPGAHRSPATSAGPELAGLPRRPPGEPLQGFSKLGGGGLRSPGGGRDCMVCFESEVTAALVPCGHNLFCMECAVRICERTDPECPVCHITATQAIRIFS

Here are results for three variants from PMC9537309.

In one assay the parent is B1. Put plainly: FLAG immunoprecipitation and LC/ESI-MS/MS. Particulars: with HNRNPL [human (endogenous in HEK293T)]; HEK293T cells, three biological replicates; read off a plot.
Consider chain 1 MQSKRDCELWCERVNPENKAALEAWVRETGIRLVQVNGQRKYGGPPPGWVGSPPPAGSEVFIGRLPQDVYEHQLIPLFQRVGRLYEFRLMMTFSGLNAGFAYARYSSRRGAQAAIATLHNHPLRPSCPLLVCRSTEKCELSVDGLPPNLTRSALLLALQPLGPGLQEARLLPSPGPAPGQIALLKFSSHRAAAMAKKALVEGQSHLCGEQVAVEWLKPDLKQRLRQQLVGPFLRSPQPEGSQLALARDKLGFQGARATLQLLCQRMKLGSPVFLTKCLGIGPAGWHRFWYQVVIPGHPVPFSGLIWVVLTLDGRDGHEVAKDAVSVRLLQALSESGANLLWSAGAEAGTMVKQ [chain 1 R98A], for which the screen value is -1.7.

In the next assay the parent is B2. The experiment in a line: FLAG immunoprecipitation and LC/ESI-MS/MS. Particulars: with SYNCRIP [human (endogenous in HEK293T)]; HEK293T cells, three biological replicates; read off a plot.
On to chain 1 MQSKRDCELWCERVNPENKAALEAWVRETGIRLVQVNGQRKYGGPPPGWVGSPPPAGSEVFIGRLPQDVYEHQLIPLFQRVGRLYEFRLMMTFSGLNAGFAYARYSSRRGAQAAIATLHNHPLRPSCPLLVCRSTEKCELSVDGLPPNLTRSALLLALQPLGPGLQEARLLPSPGPAPGQIALLKFSSHRAAAMAKKALVEGQSHLCGEQVAVEWLKPDLKQRLRQQLVGPFLRSPQPEGSQLALARDKLGFQGARATLQLLCQRMKLGSPVFLTKCLGIGPAGWHRFWYQVVIPGHPVPFSGLIWVVLTLDGRDGHEVAKDAVSVRLLQALSESGANLLWSAGAEAGTMVKQ [chain 1 R98A], for which the screen value was -2.5.

Another assay covers variants of B3. The experiment in a line: FLAG immunoprecipitation and LC/ESI-MS/MS. Conditions: with MEX3A [human (endogenous in HEK293T)]; HEK293T cells, three biological replicates; read off a plot.
Turning to chain 1 MQSKRDCELWCERVNPENKAALEAWVRETGIRLVQVNGQRKYGGPPPGWVGSPPPAGSEVFIGRLPQDVYEHQLIPLFQRVGRLYEFRLMMTFSGLNAGFAYARYSSRRGAQAAIATLHNHPLRPSCPLLVCRSTEKCELSVDGLPPNLTRSALLLALQPLGPGLQEARLLPSPGPAPGQIALLKFSSHRAAAMAKKALVEGQSHLCGEQVAVEWLKPDLKQRLRQQLVGPFLRSPQPEGSQLALARDKLGFQGARATLQLLCQRMKLGSPVFLTKCLGIGPAGWHRFWYQVVIPGHPVPFSGLIWVVLTLDGRDGHEVAKDAVSVRLLQALSESGANLLWSAGAEAGTMVKQ [chain 1 R98A], the screen value was -3.2.
